{"source": "IntAct's records for PubMed 11375976", "target": "TERF1, P54274-2", "sequence (P54274 other isoform, or with tags, fused parts or gaps)": "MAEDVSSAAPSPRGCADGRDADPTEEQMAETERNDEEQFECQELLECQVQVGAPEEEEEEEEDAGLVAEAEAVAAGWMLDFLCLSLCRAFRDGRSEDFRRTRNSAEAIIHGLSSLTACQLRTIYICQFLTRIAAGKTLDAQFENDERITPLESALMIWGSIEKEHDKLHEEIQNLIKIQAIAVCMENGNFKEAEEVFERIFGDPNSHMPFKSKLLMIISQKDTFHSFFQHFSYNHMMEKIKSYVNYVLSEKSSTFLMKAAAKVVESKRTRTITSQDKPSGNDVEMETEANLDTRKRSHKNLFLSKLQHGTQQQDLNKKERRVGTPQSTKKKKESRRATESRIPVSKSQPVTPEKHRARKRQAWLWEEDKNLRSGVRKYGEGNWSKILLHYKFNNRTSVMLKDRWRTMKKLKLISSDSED", "data": [{"substance": "Serine-protein kinase ATM (Homo sapiens), Q13315 D2870A;N2875K", "values": [{"measurement": "effect of a mutation on the interaction", "result": "disrupting interaction"}]}]}
